Target: KirBac1.1 WT
Assay: SEC

Q: With KirBac1.1 WT (natural protein) as the substance, how does the stoichiometry N read?
A: Its stoichiometry N is 4.

Source: article PMC4833211
